This experiment deals with Recombinant chick netrin-1 (chick, UniProt Q90922 26-606). Briefly: retention on a 30 kD cut-off size exclusion. (In general: In gel filtration, larger molecules generally elute earlier.)

B1: Integrin α3 peptide (peptide)
peptide: PRYQHTGAVYLLSASPQ
B1: the binding result is reported as “binds”.
